From the supplement of paper PMC9112550, “Optimization of the antimicrobial peptide Bac7 by deep mutational scanning” (BMC Biology, 2022)

system: Escherichia coli TOP10; assay: shrunken log2 fold change of peptide-encoding DNA abundance (4.5 h post-induction vs induction); higher = less antimicrobial activity (less host growth inhibition); conditions: time post-induction: 4.5 h; library: site-saturation at positions 5, 18, 19, 20
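Also: peptides expressed intracellularly from a pBAD plasmid library in pooled LB shake-flask culture, induced with 0.3% L-arabinose, DNA abundance read by NGS, three biological replicates, DESeq2 with apeglm shrinkage.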

Sequence | shrunken log2 fold change
RRIRHRPPRLPRPRPRPINWPRP | -0.35
RRIRQRPPRLPRPRPRPIDNPRP | -0.36
RRIRCRPPRLPRPRPRPHWAPRP | 0.244
RRIRKRPPRLPRPRPRPLWNPRP | 0.109
RRIRGRPPRLPRPRPRPPMEPRP | -0.0178
RRIRKRPPRLPRPRPRPPPKPRP | 1.2
RRIRSRPPRLPRPRPRPHDQPRP | 0.276
RRIRGRPPRLPRPRPRPRMWPRP | 0.223
RRIRARPPRLPRPRPRPLFTPRP | 0.0936
RRIRVRPPRLPRPRPRPREFPRP | 0.126
RRIRLRPPRLPRPRPRPWNHPRP | -0.347
RRIRNRPPRLPRPRPRPCIAPRP | -0.878
RRIRHRPPRLPRPRPRPLSSPRP | 0.0305
RRIRGRPPRLPRPRPRPSDTPRP | 0.116
RRIRNRPPRLPRPRPRPVVSPRP | -0.153
RRIRQRPPRLPRPRPRPHMWPRP | -0.129
RRIRPRPPRLPRPRPRPWCQPRP | 0.0224
RRIRQRPPRLPRPRPRPAKHPRP | 0.204
RRIRARPPRLPRPRPRPDHKPRP | -0.312
RRIRIRPPRLPRPRPRPLLDPRP | -0.444
RRIRYRPPRLPRPRPRPHVPPRP | -0.277
RRIRLRPPRLPRPRPRPTCKPRP | -0.0465
RRIRGRPPRLPRPRPRPYMQPRP | -0.212
RRIRHRPPRLPRPRPRPLTYPRP | -0.402
RRIRKRPPRLPRPRPRPELPPRP | 0.114

Sequence | shrunken log2 fold change
RRIRHRPPRLPRPRPRPKQVPRP | -0.482
RRIRVRPPRLPRPRPRPVPWPRP | 0.0916
RRIRYRPPRLPRPRPRPMLNPRP | -0.892
RRIRLRPPRLPRPRPRPQCMPRP | 0.0865
RRIRARPPRLPRPRPRPMKYPRP | -0.157
RRIRCRPPRLPRPRPRPMAMPRP | 0.106
RRIRGRPPRLPRPRPRPPNQPRP | 0.535
RRIRHRPPRLPRPRPRPRNPPRP | 0.0812
RRIRYRPPRLPRPRPRPKQMPRP | 0.0213
RRIRSRPPRLPRPRPRPHAFPRP | -1.44
RRIRKRPPRLPRPRPRPSHGPRP | -0.216
RRIRWRPPRLPRPRPRPGARPRP | 0.659
RRIRCRPPRLPRPRPRPIHHPRP | -0.481
RRIRDRPPRLPRPRPRPTLSPRP | 0.262
RRIRWRPPRLPRPRPRPGRTPRP | 0.0519
RRIRDRPPRLPRPRPRPPYEPRP | -0.0831
RRIRMRPPRLPRPRPRPTKDPRP | 0.277
RRIRMRPPRLPRPRPRPEESPRP | 0.113
RRIRMRPPRLPRPRPRPAYYPRP | -0.3
RRIRCRPPRLPRPRPRPSHGPRP | -0.33
RRIRPRPPRLPRPRPRPTPLPRP | 0.453
RRIRPRPPRLPRPRPRPIHEPRP | 0.152
RRIRIRPPRLPRPRPRPSYLPRP | -0.831
RRIRDRPPRLPRPRPRPQENPRP | 0.0153
RRIRHRPPRLPRPRPRPQKTPRP | 0.00246

Sequence | shrunken log2 fold change
RRIRYRPPRLPRPRPRPHCIPRP | -0.0129
RRIRDRPPRLPRPRPRPNVVPRP | -0.0354
RRIRYRPPRLPRPRPRPDACPRP | -0.045
RRIRARPPRLPRPRPRPWQGPRP | 0.0405
RRIRKRPPRLPRPRPRPQEEPRP | 0.0428
RRIRQRPPRLPRPRPRPFSAPRP | -0.0161
RRIRLRPPRLPRPRPRPEEHPRP | 0.00515
RRIRHRPPRLPRPRPRPRMGPRP | -0.00555
RRIRMRPPRLPRPRPRPPFPPRP | 0.671
RRIRYRPPRLPRPRPRPYLIPRP | -0.554
RRIRTRPPRLPRPRPRPTPVPRP | 0.313
RRIRMRPPRLPRPRPRPWHVPRP | -0.0444
RRIRLRPPRLPRPRPRPYCAPRP | -0.151
RRIRWRPPRLPRPRPRPDALPRP | 0.63
RRIRQRPPRLPRPRPRPYMHPRP | -0.512
RRIRYRPPRLPRPRPRPGPDPRP | 0.184
RRIRKRPPRLPRPRPRPFMIPRP | -0.326
RRIRHRPPRLPRPRPRPTNEPRP | -0.512
RRIRERPPRLPRPRPRPQDRPRP | -0.167
RRIRPRPPRLPRPRPRPQELPRP | 0.126
RRIRWRPPRLPRPRPRPFWAPRP | 0.274
RRIRKRPPRLPRPRPRPTYPPRP | -0.00526
RRIRIRPPRLPRPRPRPYEPPRP | -0.21
RRIRIRPPRLPRPRPRPWWHPRP | -0.218
RRIRLRPPRLPRPRPRPHPHPRP | -0.0325

Sequence | shrunken log2 fold change
RRIRNRPPRLPRPRPRPMCQPRP | -0.0153
RRIRCRPPRLPRPRPRPWVNPRP | -0.19
RRIRFRPPRLPRPRPRPYNIPRP | -0.181
RRIRTRPPRLPRPRPRPFSMPRP | -0.0868
RRIRTRPPRLPRPRPRPLTHPRP | -0.0616
RRIRPRPPRLPRPRPRPVPTPRP | 0.424
RRIRCRPPRLPRPRPRPTERPRP | 0.211
RRIRQRPPRLPRPRPRPMSPPRP | -0.11
RRIRPRPPRLPRPRPRPNSMPRP | -0.251
RRIRARPPRLPRPRPRPVDTPRP | 0.186
RRIRGRPPRLPRPRPRPYWCPRP | -0.0844
RRIRDRPPRLPRPRPRPVLIPRP | -0.0161
RRIRYRPPRLPRPRPRPSYWPRP | -0.716
RRIRIRPPRLPRPRPRPMTYPRP | -0.0592
RRIRNRPPRLPRPRPRPRFKPRP | 0.0387
RRIRFRPPRLPRPRPRPLCHPRP | -0.271
RRIRWRPPRLPRPRPRPWSCPRP | -0.169
RRIRMRPPRLPRPRPRPRIFPRP | 0.011
RRIRYRPPRLPRPRPRPAHEPRP | 0.241
RRIRTRPPRLPRPRPRPARFPRP | 0.128
RRIRKRPPRLPRPRPRPIEFPRP | 0.0427
RRIRWRPPRLPRPRPRPLEKPRP | 0.429
RRIRPRPPRLPRPRPRPFRSPRP | -0.152
RRIRYRPPRLPRPRPRPPSDPRP | -0.185
RRIRQRPPRLPRPRPRPHIYPRP | -0.0139

Sequence | shrunken log2 fold change
RRIRYRPPRLPRPRPRPARIPRP | 0.0141
RRIRSRPPRLPRPRPRPPADPRP | 0.981
RRIRCRPPRLPRPRPRPFFHPRP | -0.364
RRIRARPPRLPRPRPRPTWSPRP | 0.67
RRIRDRPPRLPRPRPRPEPLPRP | 0.0701
RRIRGRPPRLPRPRPRPMNHPRP | 0.116
RRIRVRPPRLPRPRPRPAYPPRP | -0.179
RRIRQRPPRLPRPRPRPQCDPRP | -0.146
RRIRQRPPRLPRPRPRPFHHPRP | -0.0143
RRIRCRPPRLPRPRPRPAEVPRP | -0.106
RRIRHRPPRLPRPRPRPNKGPRP | -0.174
RRIRFRPPRLPRPRPRPDPFPRP | -0.341
RRIRNRPPRLPRPRPRPPMGPRP | -0.0346
RRIRWRPPRLPRPRPRPQWAPRP | 0.829
RRIRMRPPRLPRPRPRPPCNPRP | 0.0147
RRIRRRPPRLPRPRPRPVFKPRP | -0.0974
RRIRHRPPRLPRPRPRPTFVPRP | -0.152
RRIRDRPPRLPRPRPRPGYVPRP | -0.153
RRIRERPPRLPRPRPRPYLNPRP | -0.326
RRIRARPPRLPRPRPRPGWTPRP | 0.525
RRIRIRPPRLPRPRPRPGMIPRP | -0.309
RRIRQRPPRLPRPRPRPVPPPRP | 0.536
RRIRNRPPRLPRPRPRPHDLPRP | 0.0667
RRIRRRPPRLPRPRPRPYPPPRP | -0.176
RRIRVRPPRLPRPRPRPSSNPRP | -0.375

Sequence | shrunken log2 fold change
RRIRWRPPRLPRPRPRPRFNPRP | 0.0235
RRIRLRPPRLPRPRPRPKGNPRP | -0.0951
RRIRTRPPRLPRPRPRPGYKPRP | -0.275
RRIRRRPPRLPRPRPRPVALPRP | 0.225
RRIRLRPPRLPRPRPRPEFYPRP | 0.0488
RRIRVRPPRLPRPRPRPIFTPRP | -0.0783
RRIRPRPPRLPRPRPRPVGGPRP | 0.408
RRIRKRPPRLPRPRPRPTHLPRP | 0.149
RRIRLRPPRLPRPRPRPPLLPRP | 0.158
RRIRPRPPRLPRPRPRPTAEPRP | 0.595
RRIRARPPRLPRPRPRPADWPRP | 0.984
RRIRWRPPRLPRPRPRPPCRPRP | -0.0876
RRIRGRPPRLPRPRPRPKPIPRP | 0.177
RRIRFRPPRLPRPRPRPCKHPRP | -0.0872
RRIRARPPRLPRPRPRPAKIPRP | 0.321
RRIRWRPPRLPRPRPRPTRPPRP | 0.855
RRIRCRPPRLPRPRPRPSFPPRP | -0.608
RRIRERPPRLPRPRPRPATNPRP | -0.386
RRIRRRPPRLPRPRPRPAHFPRP | 0.0399
RRIRHRPPRLPRPRPRPMLVPRP | -0.155
RRIRKRPPRLPRPRPRPPYWPRP | 0.429
RRIRRRPPRLPRPRPRPKVCPRP | 0.0559
RRIRPRPPRLPRPRPRPPELPRP | 0.206
RRIRNRPPRLPRPRPRPQSQPRP | -0.7
RRIRNRPPRLPRPRPRPTTRPRP | 0.0475
